Measurements as given in patent US20200055896A1, “SUBSTRATES RECOGNIZED BY FIBROBLAST ACTIVATION PROTEIN (FAP) AND METHODS OF USING THE SAME” (GENENTECH, INC., priority 2017, published 2020).
No end group written: not given here.

Experiments:
[1] = target: T1, FAP endopeptidase activity in the plasma (Mus musculus, UniProt P97321); experiment: FRET-quench assay: probe cleavage in mouse plasma (Fap WT, heterozygous, KO); assay type: biochemical, mice
T1 construct: the extracellular domain encoding the active enzyme can be shed from the cell surface; from tissue; host or cells: mouse plasma (C57BL/6 background; Fap +/+, +/-, -/-)
T1 sequence (P97321 24-761 limits assumed): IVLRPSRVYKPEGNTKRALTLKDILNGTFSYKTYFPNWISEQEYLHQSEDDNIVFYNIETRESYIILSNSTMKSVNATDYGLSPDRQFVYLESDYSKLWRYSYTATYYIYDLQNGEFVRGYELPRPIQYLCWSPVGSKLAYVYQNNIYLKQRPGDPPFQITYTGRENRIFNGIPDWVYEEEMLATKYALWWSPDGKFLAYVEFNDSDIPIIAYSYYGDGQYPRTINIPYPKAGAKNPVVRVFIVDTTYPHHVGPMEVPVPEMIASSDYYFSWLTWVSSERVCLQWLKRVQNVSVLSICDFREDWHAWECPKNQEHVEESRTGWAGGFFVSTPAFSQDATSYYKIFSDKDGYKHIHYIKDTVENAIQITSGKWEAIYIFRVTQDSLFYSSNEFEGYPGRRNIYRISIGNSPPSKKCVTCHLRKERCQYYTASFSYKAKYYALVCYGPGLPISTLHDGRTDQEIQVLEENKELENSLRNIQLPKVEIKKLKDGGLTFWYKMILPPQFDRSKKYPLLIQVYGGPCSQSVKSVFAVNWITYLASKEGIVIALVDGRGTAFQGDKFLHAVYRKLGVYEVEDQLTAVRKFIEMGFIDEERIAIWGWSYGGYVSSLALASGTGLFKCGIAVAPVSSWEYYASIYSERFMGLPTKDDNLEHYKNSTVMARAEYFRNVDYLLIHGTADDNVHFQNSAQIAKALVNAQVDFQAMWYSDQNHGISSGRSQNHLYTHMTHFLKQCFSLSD
Method: (§1) Mouse plasma samples were prepared in K3-EDTA MiniCollect tubes (Greiner Bio-One, 450475) and frozen immediately at −80° C. prior to analysis. Human serum samples were obtained from healthy donors or purchased from Discovery Life Sciences, Inc. (Los Osos, Calif.).
(§2) Peptides of the region flanking the C-terminal human FGF21 cleavage site (VGPSQG) or a variant with D-alanine at P2 (VaPSQG) were synthesized (Anaspec, Inc.), containing an amine-terminal donor (HyLite Fluor 488 or Cy5.5 for aP NIRF) and a dark quencher-acceptor (QXL 520 or QSY21 for aP NIRF) conjugated to a supplementary C-terminal lysine. ANPFAP (Bioconjugate Chem 23:1704-11) and aP NIRF were synthesized by CPC Scientific (Sunnyvale, Calif.). Assays were conducted at 37° C. in 50 mM HEPES (pH 7.2), 150 mM NaCl, 1 mM EDTA, 0.1 mg/ml BSA. The excitation/emission wavelengths of cleaved peptide are 490/520 nm or 675/695 nm for ANPFAP and aP NIRF. Fluorescence was monitored on a Tecan M1000 Pro plate reader in kinetic mode. Except where indicated otherwise, measurements of serum or plasma FAP activity were performed with the peptide substrate concentration at 6 μM and a 10-fold dilution of serum or plasma in assay buffer.

[2] = test system: human or mouse recombinant FAP; experiment: Michaelis-Menten kinetics of GP and aP cleavage by recombinant FAP; assay type: biochemical; details: corrected for active enzyme concentration
Method: Michaelis-Menten kinetic measurements were carried out using 5 nM human or mouse recombinant FAP, with a series of peptide substrate titrations. Initial rate of substrate hydrolysis was determined using the Magellan software on a Tecan M1000 Pro plate reader and kinetic parameters were modeled using nonlinear regression analysis with GraphPad Prism software. Standard error was calculated from three experimental replicates.
As described by Copeland ((2000) Enzymes: a practical introduction to structure, mechanism, and data analysis, 2nd ed., J. Wiley, New York) the active enzyme concentration was determined from the x-intercept.

FAP = target: T2, FAP (Homo sapiens, UniProt Q12884); experiment: aP cleavage in anti-FAP or control IgG-immunodepleted human serum; assay type: biochemical; details: after FAP immunodepletion; serum diluted 2.5-fold
T2 construct: the extracellular domain encoding the active enzyme can be shed from the cell surface; tissue Discovery Life Sciences, Inc. (part of the samples); host or cells: human serum (healthy donors, cirrhosis patients)
T2 sequence (Q12884 24-760 limits assumed): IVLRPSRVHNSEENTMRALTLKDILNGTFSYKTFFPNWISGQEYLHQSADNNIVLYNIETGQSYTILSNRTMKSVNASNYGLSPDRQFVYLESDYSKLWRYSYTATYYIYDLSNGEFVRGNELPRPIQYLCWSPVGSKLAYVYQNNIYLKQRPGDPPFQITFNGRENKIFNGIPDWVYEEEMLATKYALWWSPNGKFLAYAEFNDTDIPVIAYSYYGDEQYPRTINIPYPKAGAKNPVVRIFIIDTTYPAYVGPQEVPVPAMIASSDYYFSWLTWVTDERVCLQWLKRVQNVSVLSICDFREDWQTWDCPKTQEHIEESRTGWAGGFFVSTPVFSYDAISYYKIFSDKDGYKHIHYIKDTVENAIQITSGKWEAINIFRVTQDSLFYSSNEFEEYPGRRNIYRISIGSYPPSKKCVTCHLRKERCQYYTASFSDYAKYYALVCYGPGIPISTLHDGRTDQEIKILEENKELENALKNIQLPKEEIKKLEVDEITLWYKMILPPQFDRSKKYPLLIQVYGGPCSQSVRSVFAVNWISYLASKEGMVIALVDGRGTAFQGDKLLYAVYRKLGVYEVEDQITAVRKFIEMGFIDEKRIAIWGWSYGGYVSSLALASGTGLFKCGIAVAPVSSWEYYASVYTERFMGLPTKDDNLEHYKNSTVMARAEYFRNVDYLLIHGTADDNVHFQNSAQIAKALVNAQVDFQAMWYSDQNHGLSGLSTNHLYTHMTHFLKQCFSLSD
Method: as §1, §2

Row | Substance | probe cleavage activity in plasma ([1]; plasma from Fap heterozygous mice, 3 μM peptide) | probe cleavage signal in plasma ([1]; plasma from WT (Fap+/+) mice, 3 μM peptide) | probe cleavage activity in plasma ([1]; plasma from homozygous Fap KO mice, 3 μM peptide) | probe cleavage in plasma ([1]; Fap KO plasma, plasma diluted 10-fold) | probe cleavage signal in plasma ([1]; WT plasma, plasma diluted 10-fold) | probe cleavage signal in plasma ([1]; heterozygous plasma, plasma diluted 10-fold) | Km relative to parental GP peptide [2] | decrease in kcat relative to GP peptide [2] | cleavage signal in human serum (FAP)
1 | GP probe: human FGF21 cleavage-site peptide VGPSQG with amine-terminal HyLite Fluor 488 donor and QXL 520 quencher on supplementary C-terminal lysine ({HyLite Fluor 488}-VGPSQGK(QXL 520)) | approximately half the activity as that from WT mice | strong signal | even lower, but significant activity | – | – | – | – | – | –
2 | aP probe: FGF21-based peptide VaPSQG (D-alanine at P2) with HyLite Fluor 488 donor and QXL 520 quencher | – | – | – | no cleavage | clear signal | intermediate | essentially unchanged | seven to eight-fold decrease | signal is lost
